# “And” between values parts separate entries of the source, which are not always exact repeats. Equal entries are not always repeated.
# Assays:
# [1] = molecular target: HIV-1 envelope clone G-011.c02 (multiclade gp160 clone panel) (HIV-1); assay: cell-based or functional assay
# [2] = molecular target: HIV-1 envelope of gp160 clone B-Acute-010.c09 (HIV-1); assay: cell-based or functional assay
# [3] = molecular target: HIV-1 envelope of gp160 clone B-Acute-008.c11 (HIV-1); assay: cell-based or functional assay
# [4] = molecular target: HIV-1 envelope of gp160 clone AG-010.c11 (HIV-1); assay: cell-based or functional assay
# [5] = molecular target: HIV-1 envelope of gp160 clone B-Chronic-014.c02 (HIV-1); assay: cell-based or functional assay
# [6] = molecular target: HIV-1 envelope of gp160 clone B-Acute-010.c08 (HIV-1); assay: cell-based or functional assay
# [7] = molecular target: HIV-1 JRCSF envelope (HIV-1) (UniProt P20871); assay: cell-based or functional assay
# [8] = molecular target: HIV-1 envelope of gp160 clone B-Acute-009-c08 (HIV-1); assay: cell-based or functional assay
# [9] = molecular target: HIV-1 envelope clone G-011.c05 (multiclade gp160 clone panel) (HIV-1); assay: cell-based or functional assay
# [10] = molecular target: HIV-1 envelope of gp160 clone AG-010.c14 (HIV-1); assay: cell-based or functional assay
# [11] = molecular target: HIV-1 envelope clone G-011.c02 (multiclade gp160 clone panel) (HIV-1); assay: capture ELISA, plate 1, mAb 0.3 ug/ml
# [12] = molecular target: HIV-1 envelope of gp160 clone B-Acute-010.c09 (HIV-1); assay: capture ELISA, plate 1, mAb 0.3 ug/ml
# [13] = molecular target: HIV-1 envelope of gp160 clone B-Acute-008.c11 (HIV-1); assay: capture ELISA, plate 1, mAb 0.3 ug/ml
# [14] = molecular target: HIV-1 envelope clone F1-002.c11 (multiclade gp160 clone panel) (HIV-1); assay: capture ELISA, plate 1, mAb 0.3 ug/ml
# [15] = molecular target: HIV-1 envelope clone BF-002.c08 (multiclade gp160 clone panel) (HIV-1); assay: capture ELISA, plate 1, mAb 0.3 ug/ml
# [16] = molecular target: HIV-1 envelope of gp160 clone AG-010.c11 (HIV-1); assay: capture ELISA, plate 1, mAb 0.3 ug/ml
# [17] = molecular target: HIV-1 envelope of gp160 clone B-Chronic-014.c02 (HIV-1); assay: capture ELISA, plate 1, mAb 0.3 ug/ml
# [18] = molecular target: HIV-1 envelope of gp160 clone B-Acute-010.c08 (HIV-1); assay: capture ELISA, plate 1, mAb 0.3 ug/ml
# [19] = molecular target: HIV-1 JRCSF envelope (HIV-1) (UniProt P20871); assay: capture ELISA, plate 1, mAb 0.3 ug/ml
# [20] = molecular target: HIV-1 envelope of gp160 clone B-Acute-009-c08 (HIV-1); assay: capture ELISA, plate 1, mAb 0.3 ug/ml
# [21] = molecular target: HIV-1 envelope clone BF-002.c05 (multiclade gp160 clone panel) (HIV-1); assay: capture ELISA, plate 1, mAb 0.3 ug/ml
# [22] = molecular target: HIV-1 envelope clone G-011.c05 (multiclade gp160 clone panel) (HIV-1); assay: capture ELISA, plate 1, mAb 0.3 ug/ml
# [23] = molecular target: HIV-1 envelope clone F1-002.c16 (multiclade gp160 clone panel) (HIV-1); assay: capture ELISA, plate 1, mAb 0.3 ug/ml
# [24] = molecular target: HIV-1 envelope of gp160 clone AG-010.c14 (HIV-1); assay: capture ELISA, plate 1, mAb 0.3 ug/ml
# [25] = molecular target: HIV-1 JRFL envelope (HIV-1); assay: capture ELISA, plate 1, mAb 2.5 ug/ml
# [26] = molecular target: HIV-1 envelope of gp160 clone B-Acute-010.c09 (HIV-1); assay: capture ELISA, plate 1, mAb 2.5 ug/ml
# [27] = molecular target: HIV-1 envelope of gp160 clone B-Acute-008.c11 (HIV-1); assay: capture ELISA, plate 1, mAb 2.5 ug/ml
# [28] = molecular target: HIV-1 envelope clone F1-002.c11 (multiclade gp160 clone panel) (HIV-1); assay: capture ELISA, plate 1, mAb 2.5 ug/ml
# [29] = molecular target: HIV-1 envelope of gp160 clone AG-010.c11 (HIV-1); assay: capture ELISA, plate 1, mAb 2.5 ug/ml
# [30] = molecular target: HIV-1 envelope of gp160 clone B-Chronic-014.c02 (HIV-1); assay: capture ELISA, plate 1, mAb 2.5 ug/ml
# [31] = molecular target: HIV-1 envelope of gp160 clone B-Acute-010.c08 (HIV-1); assay: capture ELISA, plate 1, mAb 2.5 ug/ml
# [32] = molecular target: HIV-1 JRCSF envelope (HIV-1) (UniProt P20871); assay: capture ELISA, plate 1, mAb 2.5 ug/ml
# [33] = molecular target: HIV-1 16055 envelope (HIV-1); assay: capture ELISA, plate 1, mAb 2.5 ug/ml
# [34] = molecular target: HIV-1 envelope clone G-011.c05 (multiclade gp160 clone panel) (HIV-1); assay: capture ELISA, plate 1, mAb 2.5 ug/ml
# [35] = molecular target: HIV-1 envelope clone F1-002.c16 (multiclade gp160 clone panel) (HIV-1); assay: capture ELISA, plate 1, mAb 2.5 ug/ml
# [36] = molecular target: HIV-1 envelope of gp160 clone AG-010.c14 (HIV-1); assay: capture ELISA, plate 1, mAb 2.5 ug/ml
# [37] = molecular target: BG505 envelope (gp120 monomer released from lysed pseudovirus) (HIV-1); assay: antigen capture ELISA, mAb 2.5 ug/ml, plate 1
# [38] = molecular target: aMLV envelope (from lysed pseudovirus); assay: antigen capture ELISA, mAb 2.5 ug/ml, plate 1
# [39] = molecular target: HIV-1 JRFL envelope (HIV-1); assay: capture ELISA, plate 1, mAb 0.3 ug/ml
# [40] = molecular target: HIV-1 16055 envelope (HIV-1); assay: capture ELISA, plate 1, mAb 0.3 ug/ml
Substance,ELISA OD [11] [OD],ELISA OD [12] [OD],ELISA OD [13] [OD],ELISA OD [14] [OD],ELISA OD [15] [OD],ELISA OD [16] [OD],ELISA OD [18] [OD],ELISA OD [20] [OD],ELISA OD [22] [OD],ELISA OD [24] [OD],ELISA OD [26] [OD],ELISA OD [27] [OD],ELISA OD [29] [OD],ELISA OD [30] [OD],ELISA OD [31] [OD],ELISA OD [32],ELISA OD [34] [OD],ELISA OD [36] [OD],ELISA OD [37] [OD],ELISA OD [38],also measured
PG16 (antibody),0.063,0.062,0.163,0.088,0.109,0.141,0.083,0.053,0.085,0.265,0.124,0.189,0.216,0.398,0.186,0.206 OD and 0.164 OD,0.126,0.485,0.103,0.063 OD and 0.072 OD,PG16 [1]: > 50 µg/mL; PG16 [2]: 1.21 µg/mL; PG16 [3]: 5.3 µg/mL; PG16 [4]: 0.031 µg/mL; PG16 [5]: 0.037 µg/mL; PG16 [6]: 0.015 µg/mL; PG16 [7]: 0 µg/mL; PG16 [8]: 0.202 µg/mL; PG16 [9]: 0.024 µg/mL; PG16 [10]: 0.007 µg/mL; ELISA OD [17]: 0.288 OD; ELISA OD [19]: 0.122 OD and 0.186 OD; ELISA OD [21]: 0.352 OD; ELISA OD [23]: 0.229 OD; ELISA OD [25]: 0.085 OD and 0.088 OD; ELISA OD [28]: 0.142 OD; ELISA OD [33]: 0.185 OD and 0.131 OD; ELISA OD [35]: 0.129 OD
PGT145 (antibody),0.084,0.065,0.099,0.061,0.065,0.06,0.081,0.058,0.076,0.055,0.068,0.101,0.06,0.064,0.277,0.071 OD and 0.061 OD,0.087,0.065,0.077,0.062 OD and 0.068 OD,PGT145 IC50 [1]: 1.8 µg/mL; PGT145 IC50 [2]: 0.294 µg/mL; PGT145 IC50 [3]: 8.2 µg/mL; PGT145 IC50 [4]: 8.27 µg/mL; PGT145 IC50 [5]: 2.22 µg/mL; PGT145 IC50 [6]: 0.032 µg/mL; PGT145 IC50 [7]: 0.003 µg/mL; PGT145 IC50 [8]: 0.007 µg/mL; PGT145 IC50 [9]: 0.115 µg/mL; PGT145 IC50 [10]: > 50 µg/mL; ELISA OD [39]: 0.063 OD and 0.071 OD; ELISA OD [17]: 0.056 OD; ELISA OD [19]: 0.083 OD and 0.072 OD; ELISA OD [40]: 0.057 OD and 0.069 OD; ELISA OD [21]: 0.106 OD; ELISA OD [23]: 0.164 OD; ELISA OD [25]: 0.06 OD; ELISA OD [28]: 0.089 OD; ELISA OD [33]: 0.115 OD and 0.06 OD; ELISA OD [35]: 0.316 OD
PG9 (antibody),0.064,0.073,0.114,,,0.278,0.089,0.062,0.104,0.339,0.133,0.281,0.759,1.79,0.313,0.356 OD and 0.338 OD,0.308,0.988,0.346,0.068 OD and 0.067 OD,PG9 IC50 [1]: > 50 µg/mL; PG9 IC50 [2]: 22.2 µg/mL; PG9 IC50 [3]: 0.396 µg/mL; PG9 IC50 [4]: 0.104 µg/mL; PG9 IC50 [5]: 0.039 µg/mL; PG9 IC50 [6]: 0.147 µg/mL; PG9 IC50 [7]: 0.002 µg/mL; PG9 IC50 [8]: 0.288 µg/mL; PG9 IC50 [9]: 0.098 µg/mL; PG9 IC50 [10]: 0.035 µg/mL; ELISA OD [39]: 0.066 OD and 0.072 OD; ELISA OD [17]: 0.564 OD; ELISA OD [19]: 0.158 OD and 0.171 OD; ELISA OD [40]: 0.184 OD and 0.188 OD; ELISA OD [25]: 0.068 OD and 0.077 OD; ELISA OD [33]: 0.364 OD and 0.308 OD
PGV04 (antibody),0.167,0.432,0.055,0.082,0.663,0.07,0.287,0.07,0.08,0.093,1.73,0.059,0.136,4,1.34,1.53 OD and 1.78 OD,0.256,0.241,1.04,0.056 OD and 0.073 OD,ELISA OD [19]: 0.481 OD and 0.603 OD; ELISA OD [21]: 0.881 OD; ELISA OD [23]: 0.083 OD; ELISA OD [28]: 0.145 OD; ELISA OD [35]: 0.242 OD
PGT151 (antibody),0.053,0.052,0.138,0.054,0.055,0.055,0.104,0.085,0.064,0.118,0.06,0.152,0.062,0.206,0.243,0.087 OD and 0.063 OD,0.073,0.164,0.063,0.068 OD and 0.053 OD,ELISA OD [39]: 0.074 OD and 0.055 OD; ELISA OD [17]: 0.195 OD; ELISA OD [40]: 0.053 OD and 0.058 OD; ELISA OD [21]: 0.08 OD; ELISA OD [23]: 0.062 OD; ELISA OD [25]: 0.078 OD and 0.06 OD; ELISA OD [28]: 0.063 OD; ELISA OD [33]: 0.091 OD and 0.061 OD; ELISA OD [35]: 0.081 OD

# From US20150065381A1
